Like-named read-outs stand apart in the source and are kept apart here. Primed or numbered codes have the meaning given here. Where no end group is shown, it is not given here. code X = (S)-5-azido-2-(Fmoc-amino)pentanoic acid (δ-azido-L-norvaline); Orn(N3) = [N-]=[N+]=NCCC[C@H](N)C(=O)O; IRDye800CW′ = not defined here; IRDyeQC‑1 = quencher label; IRDye800RS = dye label; Pol = MeO-PEG-alkyne
What was measured:
S. aureus = assay: Coated catheter S. aureus challenge, near infrared fluorescence imaging; type: cell-based; settings: for Coating response to S. aureus challenge: coated Foley silicone catheter, 2×10^6 CFU ml^−1 S. aureus, 4 hours, excitation 710 nm, emission 800 nm; for detection of S. aureus (in words): coated catheter, S. aureus challenge
Protocol: The catheter used was a 14F silicone Foley Catheter which was provided in 6 mm lengths and having a diameter of 4.2 mm. An aqueous slurry of each polymer coating was prepared and each piece of catheter plunged into the slurry mixture. The coated catheters were stored at 20° C. in the dark for 15 minutes prior to repeating the dipping procedure. The process was repeated four times in total. After the final coating, the coated catheters were stored at 35° C. for 48 hours to facilitate drying of the coating. Each coated catheter and one none coated catheter as control, were incubated in the presence of 2×10^6 colony-forming units (CFU) ml^−1 of S. auereus for 4 hours. […] The results obtained from the IVIS Spectrum and IVIS Lumina II were analyzed with Living Image 4.2. (Caliper L S, Hopkinton Mass., USA). Optimal detection limits were set to the lowest signal at which positive signal was effortlessly discriminated from negative controls. Signal intensity was determined by drawing regions of interests (ROI's) and measuring average counts in these regions. The signal was corrected for background by subtracting the background signal from the signal of interest, referred to in the text as net counts. A strong near infrared signal was, attributed to the first fluorescent agent.

V8 protease = V8 protease (Staphylococcus aureus, UniProt P0C1U8); settings: surface bound, Odyssey CLX, exciting at 800 nm
Protocol: The resulting solution (50 μL) was pipetted onto the glass slide, and the slide was kept in a humidified environment for 1H. The droplet was washed off by rinsing 3× with 1 mL DMSO:H2O 80/20; thereafter, the slide was placed in a washing solution of DMSO:H2O 80/20 and was gently agitated for 1 minute. The washing solution was rinsed off with water (5×1 mL) and the slide was dried by a flow of nitrogen.
Li-Cor Odyssey CLX equipment was used on site at Westburg (Leusden, N L; Timo Kreike, Moniek Kors). All Odyssey CLX measurements were taken by exciting at 800 nm.

[1] = molecular target: V8 protease (Endoproteinase Glu-C from Staphylococcus aureus V8) (Staphylococcus aureus, UniProt P0C1U8); settings: in solution, excitation 720 nm
Protocol: Bacterial protease was obtained from Sigma-Aldrich (Endoproteinase Glu-C from Staphylococcus aureus V8, P2922 SIGMA), also named ‘protease V8’ or ‘V8’ in this document.
The cleavage of peptide 1 in the presence of V8 protease and GranzymB protease was monitored in solution by luminescence spectroscopy. Photo-luminescence spectra were measured on a Perkin-Elmer Luminescence Spectrometer LS50 B. Spectra were recorded from 250 to 900 nm, using an excitation wavelength of 720 nm and applying a slit width of 15 nm.
The digestion in solution was performed in a glass vial. 100 μL of stock solution of peptide 1 (10 mg/mL) was diluted with 625 μL H2O and 250 μL 100 mM phosphate buffer solution (pH=7.8). A sample of 10 μL was taken at t=0. Then, 50 μL of V8 or Granzyme B protease stock solution (25 units, ±25 μg) was added, the mixture shaken and was kept at room temperature. […] At various time points (30 s, 2, 5, 10, 15, 20, 25, 30, 40, 50, 60, 90, 120, 150 and 180 min., and at 18H) a 10 μL incubate sample was taken and was diluted with 3 mL of water. The prepared diluted samples were measured by luminescence spectroscopy, so as to monitor the digestive cleavage of peptide 1. As blanks, cuvettes with water and the same amount of DMSO as the sample solution were used.

[2] = molecular target: T1, Granzyme B, Human, Recombinant (Homo sapiens, UniProt P10144); assay: Digestion of peptide 1 in solution monitored by luminescence spectroscopy (Granzyme B); type: biochemical; settings: presence of Granzyme B
T1 construct: purchased MerckMillepore 368043; host or cells: E. coli
From the text: Human recombinant protease was obtained from MerckMillepore (368043 Granzyme B, Human, Recombinant, E. coli).

Chain of V8 protease (Endoproteinase Glu-C from Staphylococcus aureus V8) (P0C1U8 69-336): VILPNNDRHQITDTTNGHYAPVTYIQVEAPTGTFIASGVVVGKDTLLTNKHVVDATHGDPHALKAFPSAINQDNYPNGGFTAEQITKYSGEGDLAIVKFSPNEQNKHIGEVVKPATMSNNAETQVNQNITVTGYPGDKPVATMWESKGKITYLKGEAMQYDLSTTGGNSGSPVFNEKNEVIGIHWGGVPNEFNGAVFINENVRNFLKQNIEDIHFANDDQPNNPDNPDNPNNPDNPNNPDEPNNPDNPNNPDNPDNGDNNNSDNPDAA
T1 sequence (P10144 21-247): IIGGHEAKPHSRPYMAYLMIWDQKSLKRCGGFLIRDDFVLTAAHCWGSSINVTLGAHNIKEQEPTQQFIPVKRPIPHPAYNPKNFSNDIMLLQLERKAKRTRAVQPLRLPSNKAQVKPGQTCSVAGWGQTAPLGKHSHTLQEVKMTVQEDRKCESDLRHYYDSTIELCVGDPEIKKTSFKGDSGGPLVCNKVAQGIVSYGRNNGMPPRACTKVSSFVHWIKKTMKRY
Chain of V8 protease (P0C1U8 69-336): as the sequence (P0C1U8 69-336) above

Substance: (IRDye800RS)-KG-(Pol)-X-LLEFRIVAK(IRDye800RS) ({IRDye800RS-Lys-Gly-Pol-code X}-LLEFRIVAK(IRDye800RS); also: MeO-PEG) [Example 5.3]
- Coating response to S. aureus challenge (S. aureus): +
- detection of S. aureus (in words) (S. aureus): only a weak signal is detected

Substance: Ac-(IRDye800CW)CG-(Pol)-X-LLEFRIVAK(IRDyeQC-1) ({Ac-Cys(IRDye800CW)-Gly-Pol-code X}-LLEFRIVAK(IRDyeQC‑1); also: MeO-PEG) [Example 5.4]
- Coating response to S. aureus challenge (S. aureus): ++
- detection of S. aureus (in words) (S. aureus): very good detection

Substance: Ac-X-[K(IRDye800RS)]-GLLEFRIVAK(IRDye800RS)-amide ({Ac-Orn(N3)-K(IRDye800RS)}-GLLEFRIVAK(IRDye800RS)-NH2) [Peptide 1]
- intensity (V8 protease; before V8 protease): circa 6000 units
- intensity (V8 protease; in the presence of V8 protease): 25000 units
- background fluorescence ([1]; absence of V8 protease): around 1 AU
- fluorescence intensity ([1]; after 30 s of adding V8 protease): 4 AU
- fluorescence intensity ([1]; within 6 minutes of adding V8 protease): 6 AU
- cleavage by Granzyme B [2]: not cut
- background fluorescence ([2]; maintained throughout the experiment): 1 AU

Substance: G-(Pol)-X-LLEFRIVAC-IRDye800CW (LLEFRIVAC-{IRDye800CW′}; not fully specified (residue 9, N-terminus); also: MeO-PEG) [Example 5.2, comparative, no non-fluorescent agent, reference compound]
- Coating response to S. aureus challenge (S. aureus): −
- detection of S. aureus (in words) (S. aureus): only a small change in intensity in emitted light is detected

Reference: patent publication US10668186B2, “Quenched coating” (Original G B.V., priority 2014, dated 2020)
